Results on six sequences are retold here after a protein production outcome set (Wang et al. 2014).

The nature of this data set: label from the status in PepcDB records.
Turning to “MRIIFKIIAFLSFFAFLSGCGAGLTAFSKGERLEREGKLDEAVIKYSEAVASNPEMNEYRMRLLKTSEEAALRHLSKGDEFIALKNYDAALVEYQAAVALDPSLQRAKQESDKLVRQKNSRTYFKEGQDFERGNKPREALQAYRKALDLDGQNKEAKEALERLLSTKKTRLEGYELNLKSTKPITLKFKDANLKDVFYIVTQLSGINFIFDDTIKDQKVTIYLENANFQQALDLLTNMNKLGKKVLNESTILIFPKTPEKSKQYEDLVVKTFFLNTLDAKKAVNLLRTMLQVRKVYVNEELNAIVVRDTSELVDVAGKILEANDVPDAEVLLDVEVIEVSKRNIENFGLALSKYAVSLNTQTPGGGFLNDTFSRASVSSSTGTTIQGTAGSELLQTFSWNGYSGFMTVPSASYSFGKSITNAEVLANPKIRVKNREKSKFTVGTRVPITTTSTTGTTGGFSVNVQYVDVGVKLNAEPTIMLNNEVSIKLGLEVSSIIDKQTVGGTDSATTVVTIGTRNLDTVLNLKDGETSVIGGLIEDNKQKGKQKIFLLGDIPIIGPLLSNNSNDNQKRELILAITPRLVRSVTVPEPDLVSFWSGKEDDPSVVKPFASFELEPEFAIGQPKTVKQPAASPAPVPASVSAPAQRVAPLQPVPGSPAPTAAPQTTTSPEVKQSAAPAPGQQPAPPSTAQSQAVAPLPVPASPAAPAATVAAASAVPVAAAPAPAVRGSLNISAPAAVNLGSQFKVEIRVSDVKGLLKAPFVLIYDPIFIDYVGAVEGTFLNRDGKPTSFNAQVDKAKGRVTITLARTGAEGIDGAGSLLTATFTAKNKGPASLGLQSVNFTDQANKPIDVVPYNTVVEVK”, the protein production entry is listed as “failed”.
Turning to “MRILAIVKRIVNQFRRDKRTLALMFLAPLLLITLLTYLFEGDTVKPVVGVNGLSSSMVKELKENDLTIKTYPDNTNATAKIKDADLDAFFQQDGEKIKVTYENSEPSLSKEIGLKLQKALMAEQQVQVKKQAKTTGEALAKAGIDPNSLPALTNSPEKLTISTDYVYGDKDTSFFDTISPIFIGFFVFFFVFLIAGISFLRERTTGTLERLMATPIKRIELELGYLIGFGIFALLQSILVAVFSIQVLGMMQNGSLFYVLLITLTLGMVSLALGILLSTFANNEFQIVQFIPIVIVPQVLFCGIFPLDGMADWLVWIAHIMPLYYGANALTSIMVKGEGFASFANDFYILLGFVIIFVVLNIFALKKYRKV”, the protein production result is “failed”.
As for “MRILLVGAGGFVGRHLLPALLAAGHELLLTARRPPVDAPAGVRWLALDLERLAERPDSFAWPAGVDLLINAAGTMSLDEASMARVQDSGARTLFDLAAAHGAKVLQISALGAGAHPDVAFLASKAAADRHLLELGIPALVLRPSLLLGPGGASSAWLERLSPLPLIPLLDNRARLQPLHVEDLVGAVLALLRCWPERAQVIPLVGPQALTQGELLDELRRAQGWPRGRYVVPPAALLDALGGLGRRAGWRTLSPSMLKLVRHDNLADPALLDEACGYRCAPLASRLLGWPQAARSLAALMRPLMLAALVLIWLGTLVACLGPGYGWGLRILGEAGIHGWPASLAVIAGALLDGALGVGLLLRRWRRRALLAQFWLMLGYSLAISLILPHYWYDPYMAVGKNIVLMVATLWLLGDEPRTREARG”, the protein production entry is on record as “failed”.
The same measure for “MRITASLRTFCHLSTPHSDSTTSRLWIDEVTAVARQRDRDSFMRIYDHFAPRLLRYLTGLNVPEGQAEELVQEVLLKLWHKAESFDPSKASLGTWLFRIARNLYIDSVRKDRGWVQVQNSLEQLERLEAPVDRTLDYSQRQEQQLNSAIQNLPTDQAKVLRMSYFEALSHREISERLDMPLGTVKSCLRLAFQKLRSRIEES”: “failed”; for “MRITLVTDSTSDLPQDLRGRLGVRVVPLYVNLSGAIYRDWEEITPTEIFQKVREGAAFPTTSQPSPEDFARVYREALEEADHVLSLHISGKLSGTVQSAELAAQEFPGRVTVVDTQAASLGVGMMVLRAKELLEEGQSLEAVLAELERLRRDHFVRFSVATLEFLKRGGRIGGAQAFLGTLLNLKPVLTLKEGRVEAAGRARGEKKAREEILKAFRAWAEGRKRIRAYFLYSGDEDAVAALRQEVLASGLPVEEALVNELGAVIASHTGPGTYGFYAYSL”: “not failed”; for “MRITRIMKTAKTARTTTSTRTSGARQAAAPLIKFSLFALVTMVATTLLAATIVNISLTPEHTYRAVFSDVTGLEKGDDIRVAGVRVGQVEGIRIKDRTLAEVTFTVGEDRPLLNSTGAVVRYRNLVGQRYVALTEGAGDATRLKPGATIPLSRTQPALDLNALLNGFKPLFAALSPQDVNQLATEIIRTLQGEGGTVNSLLAHTASLTTTLAGRDKLIGSVIDNLNTVLETLDQRGARFSGLLKQLRRVISGLSADRKPIGQSLVGIGDLTDATSGLLKDARPPLKDDIAELTDLTGTLNKNENTVEGVLKRLPNKLGELTGTASYGSWFNFYLCDFDGRIVLPKTKQVLTPELHVARARCGA”: “failed”.
